The values that follow come from IntAct's records for PubMed 19468300.

B1: Protein ECT2 (Homo sapiens), Q9H8V3-4 (parent)
chain: MAENSVLTSTTGRTSLADSSIFDSKVTEISKENLLIGSTSYVEEEMPQIETRVILVQEAGKQEELIKALKDIKVGFVKMESVEEFEGLDSPEFENVFVVTDFQDSVFNDLYKADCRVIGPPVVLNCSQKGEPLPFSCRPLYCTSMMNLVLCFTGFRKKEELVRLVTLVHHMGGVIRKDFNSKVTHLVANCTQGEKFRVAVSLGTPIMKPEWIYKAWERRNEQDFYAAVDDFRNEFKVPPFQDCILSFLGFSDEEKTNMEEMTEMQGGKYLPLGDERCTHLVVEENIVKDLPFEPSKKLYVVKQEWFWGSIQMDARAGETMYLYEKANTPELKKSVSMLSLNTPNSNRKRRRLKETLAQLSRETDVSPFPPRKRPSAEHSLSIGSLLDISNTPESSINYGDTPKSCTKSSKSSTPVPSKQSARWQVAKELYQTESNYVNILATIIQLFQVPLEEEGQRGGPILAPEEIKTIFGSIPDIFDVHTKIKDDLEDLIVNWDESKSIGDIFLKYSKDLVKTYPPFVNFFEMSKETIIKCEKQKPRFHAFLKINQAKPECGRQSLVELLIRPVQRLPSVALLLNDLKKHTADENPDKSTLEKAIGSLKEVMTHINEDKRKTEAQKQIFDVVYEVDGCPANLLSSHRSLVQRVETISLGEHPCDRGEQVTLFLFNDCLEIARKRHKVIGTFRSPHGQTRPPASLKHIHLMPLSQIKKVLDIRETEDCHNAFALLVRPPTEQANVLLSFQMTSDELPKENWLKMLCRHVANTICKADAENLIYTADPESFEVNTKDMDSTLSRASRAIKKTSKKVTRAFSFSKTPKRALRRALMTSHGSVEGRSPSSNDKHVMSRLSSTSSLAGIPSPSLVSLPSFFERRSHTLSRSTTHLI
partner: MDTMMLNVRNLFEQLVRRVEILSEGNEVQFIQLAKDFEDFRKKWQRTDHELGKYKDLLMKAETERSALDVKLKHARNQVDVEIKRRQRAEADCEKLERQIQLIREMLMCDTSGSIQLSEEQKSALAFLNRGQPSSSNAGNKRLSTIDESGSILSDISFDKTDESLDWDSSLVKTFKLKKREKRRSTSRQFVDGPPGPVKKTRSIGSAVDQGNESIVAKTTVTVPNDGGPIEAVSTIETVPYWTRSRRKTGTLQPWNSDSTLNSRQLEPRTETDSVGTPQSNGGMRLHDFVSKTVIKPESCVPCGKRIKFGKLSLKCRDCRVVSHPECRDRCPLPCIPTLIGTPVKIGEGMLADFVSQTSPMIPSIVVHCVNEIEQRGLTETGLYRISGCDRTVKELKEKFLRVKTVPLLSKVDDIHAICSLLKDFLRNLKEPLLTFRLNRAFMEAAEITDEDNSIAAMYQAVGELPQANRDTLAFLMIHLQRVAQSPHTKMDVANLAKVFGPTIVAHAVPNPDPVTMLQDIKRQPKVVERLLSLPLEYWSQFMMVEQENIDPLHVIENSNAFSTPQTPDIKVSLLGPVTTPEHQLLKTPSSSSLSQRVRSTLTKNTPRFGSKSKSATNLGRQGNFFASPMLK
B2: Protein regulator of cytokinesis 1 (Homo sapiens), O43663 (parent)
chain: MRRSEVLAEESIVCLQKALNHLREIWELIGIPEDQRLQRTEVVKKHIKELLDMMIAEEESLKERLIKSISVCQKELNTLCSELHVEPFQEEGETTILQLEKDLRTQVELMRKQKKERKQELKLLQEQDQELCEILCMPHYDIDSASVPSLEELNQFRQHVTTLRETKASRREEFVSIKRQIILCMEALDHTPDTSFERDVVCEDEDAFCLSLENIATLQKLLRQLEMQKSQNEAVCEGLRTQIRELWDRLQIPEEEREAVATIMSGSKAKVRKALQLEVDRLEELKMQNMKKVIEAIRVELVQYWDQCFYSQEQRQAFAPFCAEDYTESLLQLHDAEIVRLKNYYEVHKELFEGVQKWEETWRLFLEFERKASDPNRFTNRGGNLLKEEKQRAKLQKMLPKLEEELKARIELWEQEHSKAFMVNGQKFMEYVAEQWEMHRLEKERAKQERQLKNKKQTETEMLYGSAPRTPSKRRGLAPNTPGKARKLNTTTMSNATANSSIRPIFGGTVYHSPVSRLPPSGSKPVAASTCSGKKTPRTGRHGANKENLELNGSILSGGYPGSAPLQRNFSINSVASTYSEFAKDPSLSDSSTVGLQRELSKASKSDATSGILNSTNIQS
B3: Rac GTPase-activating protein 1 (Homo sapiens), Q9H0H5 (parent)
chain: B1 partner
partner: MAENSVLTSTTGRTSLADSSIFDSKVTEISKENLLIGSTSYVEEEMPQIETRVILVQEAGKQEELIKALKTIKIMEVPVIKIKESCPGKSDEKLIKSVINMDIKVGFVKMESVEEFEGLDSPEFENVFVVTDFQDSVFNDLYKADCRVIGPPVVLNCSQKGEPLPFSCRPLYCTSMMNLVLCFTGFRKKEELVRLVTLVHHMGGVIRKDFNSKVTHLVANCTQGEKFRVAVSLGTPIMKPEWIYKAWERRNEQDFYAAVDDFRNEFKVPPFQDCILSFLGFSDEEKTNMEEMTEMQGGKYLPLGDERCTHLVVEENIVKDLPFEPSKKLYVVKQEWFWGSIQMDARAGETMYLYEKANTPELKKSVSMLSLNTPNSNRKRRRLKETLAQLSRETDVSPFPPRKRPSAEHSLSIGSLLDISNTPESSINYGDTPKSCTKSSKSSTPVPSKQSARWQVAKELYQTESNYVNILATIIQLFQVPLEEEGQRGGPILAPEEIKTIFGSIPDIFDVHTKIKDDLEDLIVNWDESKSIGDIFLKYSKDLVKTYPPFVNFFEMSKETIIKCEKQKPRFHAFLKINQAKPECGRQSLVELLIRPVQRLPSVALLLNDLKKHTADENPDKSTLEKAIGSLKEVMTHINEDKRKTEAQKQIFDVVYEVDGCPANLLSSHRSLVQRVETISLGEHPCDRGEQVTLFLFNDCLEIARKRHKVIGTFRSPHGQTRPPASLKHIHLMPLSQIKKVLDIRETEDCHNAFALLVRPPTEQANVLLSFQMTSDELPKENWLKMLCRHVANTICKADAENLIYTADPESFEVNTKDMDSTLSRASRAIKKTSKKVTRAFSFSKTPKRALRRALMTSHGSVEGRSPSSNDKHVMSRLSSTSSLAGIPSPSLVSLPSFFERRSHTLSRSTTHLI

The variants in the first assay derive from B1. To be noted: with rgap1_human RACGAP1, Q9H0H5.
As to T153A;K195A, the “effect of a mutation on the interaction” value is recorded as “disrupting interaction strength”.

For T153A, the “effect of a mutation on the interaction” value is recorded as “disrupting interaction strength”.

With K195A, the “effect of a mutation on the interaction” value is on record as “disrupting interaction”.

Variants of B2 are the subject of another assay. Particulars: with plk1_human PLK1, P53350.
plk1_human PLK1, P53350, sequence (P53350 whole entry): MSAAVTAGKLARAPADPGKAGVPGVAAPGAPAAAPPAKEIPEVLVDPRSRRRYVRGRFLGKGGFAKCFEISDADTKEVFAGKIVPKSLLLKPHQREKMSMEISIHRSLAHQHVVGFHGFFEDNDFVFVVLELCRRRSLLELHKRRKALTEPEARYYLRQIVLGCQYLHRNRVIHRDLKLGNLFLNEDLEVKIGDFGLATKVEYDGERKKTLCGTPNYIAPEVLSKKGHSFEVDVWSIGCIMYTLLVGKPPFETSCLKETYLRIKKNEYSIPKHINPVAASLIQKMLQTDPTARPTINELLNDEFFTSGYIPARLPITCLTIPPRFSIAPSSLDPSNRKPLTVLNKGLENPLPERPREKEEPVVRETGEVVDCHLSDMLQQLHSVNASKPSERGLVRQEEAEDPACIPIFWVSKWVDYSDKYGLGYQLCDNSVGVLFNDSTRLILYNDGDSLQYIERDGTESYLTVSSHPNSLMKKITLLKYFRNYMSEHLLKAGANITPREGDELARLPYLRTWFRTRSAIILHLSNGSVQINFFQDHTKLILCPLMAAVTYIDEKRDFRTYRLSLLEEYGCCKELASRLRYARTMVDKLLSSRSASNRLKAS
Take S615A;T616A: the “effect of a mutation on the interaction” value is “disrupting interaction strength”.

Another assay covers variants of B3. To be noted: with ect2_human ECT2, Q9H8V3.
Take S149A;S157A;S164A;S170A: the “effect of a mutation on the interaction” value was “disrupting interaction”.
